One test addresses T1, BMP4 (Homo sapiens, UniProt P12644).
T1 sequence (P12644 293-408): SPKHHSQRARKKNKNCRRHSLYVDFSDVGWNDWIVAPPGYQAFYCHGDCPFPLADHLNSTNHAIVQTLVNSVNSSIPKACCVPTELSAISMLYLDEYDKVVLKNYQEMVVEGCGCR
The experiment in a line: BMP4 signal transduction inhibitory activity: SMAD1 phosphorylation by BMP4 stimulus, AlphaLISA SureFire, A549 cells. Format: cell-based. To be noted: for aLISA BMP4: A549 cells. A general note: In Alpha technology, singlet oxygen from a donor bead excites a nearby acceptor bead.

In another test the target is T2, BMP7 (Homo sapiens, UniProt P18075).
T2 sequence (P18075 293-431): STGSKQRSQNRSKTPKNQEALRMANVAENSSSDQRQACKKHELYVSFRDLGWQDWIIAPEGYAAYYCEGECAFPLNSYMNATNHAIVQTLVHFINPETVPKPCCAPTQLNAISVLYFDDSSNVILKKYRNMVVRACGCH
Kind of test: BMP7 signal transduction inhibitory activity: SMAD1 phosphorylation by BMP7 stimulus, A549 cells. Format: cell-based. Particulars: for aLISA BMP7: A549 cells. A digest of the protocol:
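A549 cells were stimulated with 10 nM BMP7, and the read-out was SMAD1 phosphorylation. Peptides were tested at three concentrations spanning 1 to 1,000 nM, with sets depending on the peptide series. Some peptides were run in eight-point 1/3 dilutions starting from 100 nM or 1,000 nM, with recombinant human Noggin as positive control at matching concentrations.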

The mark [1] stands for this setting: SMAD1 phosphorylation, BMP4 0.2 nM, peptide conc. in assay 0.2, 2, 20 nM.
[2] abbreviates: SMAD1 phosphorylation, BMP7 10 nM, peptide conc. in assay 1, 10, 100 nM.
Where [3] appears, read: inhibition of SMAD1 phosphorylation by BMP4 stimulus, peptides of Synthesis 2, classes A-C, ND.
Setting [4] is: inhibition of SMAD1 phosphorylation by BMP7 stimulus, peptides of Synthesis 2, classes A-D, ND.
[5] abbreviates: BMP4 0.2 nM stimulus, peptide conc. in assay 0.2, 2, 20 nM.
The mark [6] stands for this setting: BMP7 10 nM stimulus, peptide conc. in assay 1, 10, 100 nM.

Numbered stars: 1 amine (or outer) side, 2 acyl side, 3 side chain; on linkers, the order of the positions; unused ones are H or OH. Bridge positions count the residues as written; N and C are the ends. Square brackets hold non-standard residues; d marks the D form. Side chains are listed from the residue outwards. Ends that are not written are not given here. Peptide text beside a SMILES is read from it. * marks the point of attachment. KCOpipzaa = N6-(4-(carboxymethyl)piperazine-1-carbonyl)-L-lysine, O=C(NCCCC[C@H](N[*:1])C(=O)[*:2])N1CCN(CC(=O)[*:3])CC1; Bph3F = (S)-2-amino-3-(3'-fluoro-[1,1'-biphenyl]-4-yl)propanoic acid, O=C([C@H](Cc1ccc(-c2cccc(F)c2)cc1)N[*:1])[*:2]; Cha4tH = (S)-2-amino-3-((1r,4S)-4-hydroxycyclohexyl)propanoic acid, O=C([C@H](C[C@H]1CC[C@H](O[*:3])CC1)N[*:1])[*:2]; 3Pal(6-Ph) = N[C@@H](Cc1ccc(-c2ccccc2)nc1)C(=O)O; Phe(4-COOH) = N[C@@H](Cc1ccc(C(=O)O)cc1)C(=O)O; NMePhe(4-Me) = CN[C@@H](Cc1ccc(C)cc1)C(=O)O; Piperazinyl(4-CH2COOH) = O=C(O)CN1CCN(*)CC1; Bip = N[C@@H](Cc1ccc(-c2ccccc2)cc1)C(=O)O; Phe(4-F) = N[C@@H](Cc1ccc(F)cc1)C(=O)O; Phe(4-Me) = Cc1ccc(C[C@H](N)C(=O)O)cc1; Hyp = O=C(O)[C@@H]1C[C@@H](O)CN1; NMeF = CN[C@@H](Cc1ccccc1)C(=O)O; 4Pal = N[C@@H](Cc1ccncc1)C(=O)O; Cha = N[C@@H](CC1CCCCC1)C(=O)O; Ahp(2) = CCCCC[C@H](N)C(=O)O; CO = O=C([*:1])[*:2]; βAla = NCCC(=O)O

Take “253 (ERVYVSR[3Pal(6-Ph)]SYV[Bip][4Pal][Phe(4-COOH)][Phe(4-COOH)]SCG-NH2; not fully specified) [compound 253]”: the “aLIZA BMP4 (0.2 nM) % Inh” value in the test with BMP4 (SMAD1 phosphorylation by BMP4 stimulus, peptide conc. in assay 0.02, 0.2, 2 nM, class symbols) was “C (showed less than 30% of inhibitory activity in 0.2 nM-addition zone and showed 30% or more of inhibitory activity in 2 nM-addition zone)”. The “aLIZA BMP7 (10 nM) % Inh” value with BMP7 (SMAD1 phosphorylation by BMP7 stimulus, peptide conc. in assay 10, 100, 1000 nM, class symbols) is given as “ND (the inhibitory activity was less than 30% at the maximum concentration evaluated)”.

Regarding “341 (FG[NMeF]G[Bip]GDD[Cha]S[NMeF]LHCG-NH2; not fully specified (N-terminus, bridges)) [compound 341]”, the “aLISA BMP4 (0.2 nM) % inh” value in the test with BMP4 (setting [1]) is “ND (the inhibitory activity was less than 30% at the maximum concentration evaluated)”. Besides, the “aLISA BMP7 (10 nM) % inh” value with BMP7 (setting [2]) was “D (showed less than 30% of inhibitory activity in 10 nM-addition zone and showed 30% or more of inhibitory activity in 100 nM-addition zone)”.

Take “382 (FG[NMeF]G[Phe(4-Me)]GDD[Cha]A[NMeF]LHCG-NH2; not fully specified) [compound 382]”: the “aLISA BMP4 (0.2 nM) % inh” value with BMP4 (BMP4 0.2 nM stimulus, peptide conc. in assay 2, 20, 200 nM) is reported as “ND (the inhibitory activity was less than 30% at the maximum concentration evaluated)”. The “aLISA BMP7 (10 nM) % inh” value with BMP7 (BMP7 10 nM stimulus, peptide conc. in assay 10, 30, 90 nM) was “G (showed less than 30% of inhibitory activity in 30 nM-addition zone and showed 30% or more of inhibitory activity in 90 nM-addition zone)”.

For the compound “47 (Ac-ARVYVDR[Bip]PYP[Bip]Y[Phe(4-COOH)][Phe(4-COOH)]SC[βAla][dE]-OH; thioether (positions not given here); not fully specified (bridges)) [compound 47]”, in the test with BMP4 (inhibition of SMAD1 phosphorylation by BMP4 stimulus, AlphaLISA, class by peptide concentration zone), the “aLISA BMP4” value was “A (showed an inhibitory activity of 50% or more in a zone to which the peptide was added to in an amount of 0.2 nM)”. For the same compound, the “aLISA BMP7” value with BMP7 (inhibition of SMAD1 phosphorylation by BMP7 stimulus, AlphaLISA, class by peptide concentration zone) is “ND (the inhibitory activity was less than 30% at the maximum concentration evaluated)”.

“115 (EKVYVKRFPYPFYFFSCG; not fully specified; MOD_RES 2 K represents N6-(4-(Carboxymethyl) piperazine-1-carbonyl)-L-lysine(KCOpipzaa); MOD_RES 6 K represents N6-(4-(Carboxymethyl) piperazine-1-carbonyl)-L-lysine(KCOpipzaa); MOD_RES 8 F represents (S)-3-(1,1'-Biphenyl-4-yl)-2-aminopropanoic acid(Bph); MOD_RES 12 F represents (S)-3-(1,1'-Biphenyl-4-yl)-2-aminopropanoic acid(Bph); MOD_RES 14 F represents (S)-4-(2-amino-2-carboxyethyl)benzoic aci) [compound 115]”: the “aLISA BMP4” value with BMP4 (setting [3]) was “A (showed an inhibitory activity of 50% or more in a zone to which the peptide was added to in an amount of 0.2 nM)”. The “aLISA BMP7” value with BMP7 (setting [4]) was “C (showed less than 50% of inhibitory activity in 10 nM-addition zone and showed 50% or more of inhibitory activity in 100 nM-addition zone)”.

For the compound “407 (FG[NMeF]G[Bip]GDE[Cha]Q[NMeF]L[Phe(4-COOH)]C[βAla][dE]) [compound 407]”, the “aLISA BMP4 (0.2 nM) % inh” value in the test with BMP4 (setting [5]) is given as “ND (the inhibitory activity was less than 30% at the maximum concentration evaluated)”. Besides, the “aLISA BMP7 (10 nM) % inh” value with BMP7 (setting [6]) was “C (showed less than 30% of inhibitory activity in a zone to which the peptide was added in an amount of 1 nM and showed 30% or more of inhibitory activity in 10 nM-addition zone)”.

As for “36 ({CH2CO}-AKVYV[KCOpipzaa]K[Bip]PYP[Bip]Y[Phe(4-COOH)][Phe(4-COOH)]SCG-NH2; thioether N-17; not fully specified) [compound 36]”, the “aLISA BMP4” value in the test with BMP4 (SMAD1 phosphorylation, peptides of Synthesis 2, peptide 0.02, 0.2, 2 nM) is recorded as “A (showed an inhibitory activity of 50% or more in a zone to which the peptide was added to in an amount of 0.2 nM)”. The “aLISA BMP7” value with BMP7 (10 nM BMP7, peptides of Synthesis 2, peptide 1, 10, 100 nM) is reported as “ND (the inhibitory activity was less than 30% at the maximum concentration evaluated)”.

On to “393 (FG[NMePhe(4-Me)]G[Bip]GDD[Cha]A[NMeF]LHCG-NH2; not fully specified) [compound 393]”, for which, in the test with BMP4 (setting [5]), the “aLISA BMP4 (0.2 nM) % inh” value is “A (showed less than 30% of inhibitory activity in 2 nM-peptide-addition zone and showed 30% or more of inhibitory activity in 20 nM-addition zone)”. Further, the “aLISA BMP7 (10 nM) % inh” value with BMP7 (setting [6]) was “D (showed less than 30% of inhibitory activity in 10 nM-addition zone and showed 30% or more of inhibitory activity in 100 nM-addition zone)”.

On to “318 (ERV[Phe(4-COOH)][Cha4tH][KCOpipzaa]R[3Pal(6-Ph)][KCOpipzaa]Y[Hyp][Bph3F]Y[Phe(4-COOH)][Phe(4-COOH)]SCG-NH2; not fully specified) [compound 318]”, for which the “aLIZA BMP4 (0.2 nM) % inh” value with BMP4 (BMP4 0.2 nM, peptide 0.02, 0.2, 2 nM, Table 6) was “B (showed less than 30% of inhibitory activity in 0.02 nM-addition zone and showed 30% or more of inhibitory activity in 0.2 nM-addition zone)”. Moreover, in the test with BMP7 (BMP7 10 nM, peptide 10, 100, 1000 nM, Table 6), the “aLIZA BMP7 (10 nM) % inh” value is “D (showed less than 30% of inhibitory activity in a zone to which the peptide was added in an amount of 10 nM and showed 30% or more of inhibitory activity in 100 nM-addition zone)”.

Turning to “117 (EKVYVKRFPYPFYFFSCAE; not fully specified; MOD_RES 2 K represents N6-(4-(Carboxymethyl) piperazine-1-carbonyl)-L-lysine(KCOpipzaa); MOD_RES 6 K represents N6-(4-(Carboxymethyl) piperazine-1-carbonyl)-L-lysine(KCOpipzaa); MOD_RES 8 F represents (S)-3-(1,1'-Biphenyl-4-yl)-2-aminopropanoic acid(Bph); MOD_RES 12 F represents (S)-3-(1,1'-Biphenyl-4-yl)-2-aminopropanoic acid(Bph); MOD_RES 14 F represents (S)-4-(2-amino-2-carboxyethyl)benzoic aci) [compound 117]”, in the test with BMP4 (setting [3]), the “aLISA BMP4” value is “C (showed an inhibitory activity of less than 50% in 0.2 nM-addition zone and showed an inhibitory activity of 50% or more in 2 nM-addition zone were defined as B or C)”. Also, the “aLISA BMP7” value with BMP7 (setting [4]) is “C (showed less than 50% of inhibitory activity in 10 nM-addition zone and showed 50% or more of inhibitory activity in 100 nM-addition zone)”.

Take “368 (FG[NMeF]G[Bip]GDE[Cha]Q[NMeF]L[Phe(4-COOH)]CG-NH2; not fully specified (N-terminus, bridges)) [compound 368]”: in the test with BMP4 (setting [1]), the “aLISA BMP4 (0.2 nM) % inh” value is “ND (the inhibitory activity was less than 30% at the maximum concentration evaluated)”. Further, the “aLISA BMP7 (10 nM) % inh” value with BMP7 (setting [2]) was “C (showed less than 30% of inhibitory activity in a zone to which the peptide was added in an amount of 1 nM and showed 30% or more of inhibitory activity in 10 nM-addition zone)”.

In the case of “80 ({CH2CO}-E[KCOpipzaa]VYVDR[Bip][KCOpipzaa]YP[Bip][Phe(4-F)][Phe(4-COOH)][4Pal]SCG-NH2; thioether N-17; not fully specified) [compound 80]”, the “aLISA BMP4” value with BMP4 (setting [3]) was “A (showed an inhibitory activity of 50% or more in a zone to which the peptide was added to in an amount of 0.2 nM)”. The “aLISA BMP7” value with BMP7 (setting [4]) was “C (showed less than 50% of inhibitory activity in 10 nM-addition zone and showed 50% or more of inhibitory activity in 100 nM-addition zone)”.

The IC50 is the midpoint of a concentration-inhibition curve. `CC(C)[C@@H]1NC(=O)[C@H](Cc2ccc(C(=O)O)cc2)NC(=O)[C@H](C(C)C)NC(=O)[C@H](CCCNC(=N)N)NC(=O)[C@H](CCC(=O)O)NC(=O)CSC[C@@H](C(=O)NCC(N)=O)NC(=O)[C@H](CO)NC(=O)[C@H](Cc2ccc(C(=O)O)cc2)NC(=O)[C@H](Cc2ccc(C(=O)O)cc2)NC(=O)[C@H](Cc2ccc(O)cc2)NC(=O)[C@H](Cc2ccc(-c3ccccc3)cc2)NC(=O)[C@@H]2C[C@@H](O)CN2C(=O)[C@H](Cc2ccc(O)cc2)NC(=O)[C@H](CCCCNC(=O)N2CCN(CC(=O)O)CC2)NC(=O)[C@H](Cc2ccc(-c3ccccc3)nc2)NC(=O)[C@H](CCCNC(=N)N)NC(=O)[C@H](CCCCNC(=O)N2CCN(CC(=O)O)CC2)NC1=O` [Peptide 277] ({CH2CO}-ERV[Phe(4-COOH)]VK([CO-Piperazinyl(4-CH2COOH)])R[3Pal(6-Ph)]K([CO-Piperazinyl(4-CH2COOH)])Y[Hyp][Bip]Y[Phe(4-COOH)][Phe(4-COOH)]SCG-NH2; thioether N-17): the IC50 was 0.073 nM at BMP4 (Table 2-2, 277 from 20 nM (1/3), 417 from 300 nM (1/4), ND = IC50 was not calculated) and 455 nM at BMP7 (Table 2-2, 277 from 1,000 nM (1/3), 417 from 300 nM (1/4)).

As for “338 ({CH2CO}-FG[NMeF]G[Bip]GDD[Cha][Ahp(2)][NMeF]LHCG-NH2; thioether N-14) [compound 338]”, the “aLISA BMP4 (0.2 nM) % inh” value with BMP4 (setting [1]) is “ND (the inhibitory activity was less than 30% at the maximum concentration evaluated)”. For the same compound, the “aLISA BMP7 (10 nM) % inh” value with BMP7 (setting [2]) was “D (showed less than 30% of inhibitory activity in 10 nM-addition zone and showed 30% or more of inhibitory activity in 100 nM-addition zone)”.

The values are drawn from US20250361274A1, “PEPTIDE AND PEPTIDE-CONTAINING AGENT” (PEPTIDREAM INC., priority 2022, published 2025).
